The DeepSol protein solubility set

Assay: soluble on expression in E. coli; label from the status in PepcDB or PDB records

Row | Sequence | soluble on expression in E. coli
1 | MGSDKIHHHHHHMYIRPFDPWKSKLCTCPFKYTLNPYTGCDHACVYCYITSYIPNAFKVRPKKNLLIQVERELRKFDKRYIIAMSYSSDPYPTIEKELGITRKVLELFRRYDVRCLILTKSDIFERDIDILKELRCAVGVTVTTIDERKAKLLEPNAPLPKDRIRALKKAKKEGIPVYARVDPIIPFYTWEDFRKTVDALSFVSHITVSTLKLRPDIKARMRAKFPELMKKLEPLYTERYEGYAYLRKDMRFRILNEARKIIEGKGITFGSCREGYYSYPTCDGSHLVP | not soluble
2 | MALHLHRAERTDLLADGLGALLADPQPDPFAQELVLVAARGVERWLSQRLSLVLGCGPGRADGVCAGIAFRNPQSLIAEITGTLDDDPWSPEALAWPLLAVIDASLDEPWCRTLASHLGHFATTDAEAELRRGRRYSVARRLAGLFASYARQRPGLLAAWLDGDLGELPGDLAWQPPLWRALVTTVGADPPHVRHDKTIARLRDGPADLPARLSLFGHTRLACTDVQLLDALAVHHDLHLWLPHPSDELWRALAGFQGADGLLPRRQDTSRRAAQHPLLETLGRDVRELQRALPAARATDEFLGATTKPDTLLGWLQADIAGNAPRPAGRSLSDADRSVQVHACHGPARQIDVLREVLLGLLEDDPTLQPRDIVVMCPDIDTYAPLIVAGFGLGEVAGDCHPAHRLRVRLADRALTQTNPLLSVAAELLTIAETRATASQLLNLAQAAPVRAKFGFADDDLDTITTWVRESNIRWGFDPTHRRRYGLDTVVHNTWRFGLDRILTGVAMSEDSQAWLDTALPLDDVGSNRVELAGRLAEFVERLHHVVGGLSGARPLVAWLDALATGIDLLTACNDGWQRAQVQREFADVLARAGSRAAPLLRLPDVRALLDAQLAGRPTRANFRTGTLTVCTMVPMRSVPHRVVCLVGLDDGVFPRLSHPDGDDVLAREPMTGERDIRSEDRQLLLDAIGAATQTLVITYTGADERTGQPRPPAVPLAELLDALDQTTSAPVRERILVTHPLQPFDRKNVTPGALLGAKPFTFDPAALAAAQAAAGKRCPPTAFISGRLPAPPAADVTLADLLDFFKDPVKGFFRALDYTLPWDVDTVEDSIPVQVDALAEWTVGERMLRDMLRGLHPDDAAHSEWRRGTLPPGRLGVRRAKEIRNRARDLAAAALAHRDGHGQAHDVDVDLGDGRRLSGTVTPVFGGRTVSVTYSKLAPKHVLPAWIGLVTLAAQEPGREWSALCIGRSKTRNHIARRLFVPPPDPVAVLRELVLLYDAGRREPLPLPLKTSCAWAQARRDGQDPYPPARECWQTNRFRPGDDDAPAHVRAWGPRAPFEVLLGKPRAGEEVAGEETRLGALAARLWLPLLAAEGSV | soluble
3 | MGSDKIHHHHHHVEGDCMGKGRFILMLHAHLPFINHPDFPSFMEERWLFEAITETYIPLLQGFRRLKRDGVNFKVTMSITPPLMEMFANKDLQKKYLNYLSSSIELAGNEISRTVSEHPAANRLATHYLRELEEIRAVYNECNGDLVGEFAQLQETGELEIVTCNATHGFLPLMTNFPEAINAQIEIGVDSYKKHTGREPRGIWLAECGYVPGFDSYLREHGLSFFFVDSHSLWYGDPAPRYGVYRPVVTPENVFAFARDPESSQQVWSAEVGYPGDARYREFYRDVGFDREEDYIRPYIDPSGERCNTGIKYYKITGKDVSLNEKGYYDIEDARRATVEHAKDFANRKREQIRRLSSQFDGEEPVIVAPFDAELFGHWWYEGPLFIEELFRELNGDITVVPSTPPEVIKSMEQAQVVTP | not soluble
4 | MGQSLPLHLLKYPSKFSINIYAAPVSDAREMALGSKDIVFVGSRSAGKVYAVIPDKKNSHGTRVLTIASGLNMPNGVAFHKGALYVAEIGRILRFDNIESNLNNPPEPVVVTTKLPKEKAHGWRFISFGPDDKLYIGIGAPCNVCLMEDPRYATIMRMNTYGQDLEIYARGIRNTVGFDWDPLHHNLWFTDNGRDWLGDNLPPDELNVAPRKGMDFGFPYCYGKSTVDPVYGKIHSCSEFTPAVFEFPAHVAPLGMSFYTGKLFPSNYWGQIFISEHGSWNRSHKIGYQVTTVKIKNNHVTEVKPFISGWLQGEKAWGRPVDTLVMPDGSLLISDDYANVIYRVSYQLEHHHHHH | not soluble
5 | SDVNECLTIPEACKGEMKCINHYGGYLCLPRSAAVINDLHGEGPPPPVPPAQHPNPCPPGYEPDDQDSCVD | soluble
6 | MWWREKLFDGLRALELTKKTLKNKKERESMNQEELDKKLKKQEILVKDEKVWSYTYEDHISSIVKEAEKKGSFDHLPGKGKPLNLDKDLSYNPEKQLYRTLKNNHVLPRWIELSKEIDDLKEKLKENTNTAETADLIRTINKKVLEHNLLCPPSAQKTRVKTDFLEHHHHHH | soluble
7 | SLEKSGFIVHQKFDSILQLEDFDSLDRALKESESYYQKLPSNWKTQVRKTSYHKNQMLNSLKILKKILREKNPESRKIQFQNSFLLLETKDEALGRITAYYEVIIEGRFYPEGDFIYPVLETPSDLIVKKDGNKKSVGKIINEVFVPYETREELSHTSVWKKRSKAIVYVKIVDLHLAQLEGSAFVKVPDHIPFRITYSEDNGKEYQSPAESLKGICSSLIPSDLKSCILKYPKEVEMAILKNPRYIFFKLESSAPRGSGGIELIPKRSVAMDPGIPLGIPVLISFESSVLTEKNRIVFVHDRGSQITGHGRLDYFLGTGETAEYQAGKINTQGKIFLILPKIKN | not soluble
8 | MGSDKIHHHHHHMRFGWLEQPFTTLEQLDSLFEIHSPRKFTFADSFYAHENGRHFIFFEEVDDQHPVGFLSVLEVFKDGTYTPPETILKLDYHLSYPCVFKIDSTWYMIPESSANKTIELWKCTDFPMKWEKHSNLMENIEAVDSTPFYHEGLWYLFTSTRRDCKKFGDRLDLFFTEDILNPNWQEHPMNPACRGSQQFRMAGKPFIYKGQLVRPSQDSLKRYGGNIELKAITQLSPAAYEEKLLEVVLPDWNQADDGCHTINVEDNFVVLDAIRLTPKNN | not soluble
9 | MVKLTSIAAGVAAIAATASATTTLAQSDERVNLVELGVYVSD | not soluble
10 | MTEMAKGSVTHQRLIALLSQEGADFRVVTHEAVGKCEAVSEIRGTALGQGAKALVCKVKGNGVNQHVLAILAADQQADLSQLASHIGGLRASLASPAEVDELTGCVFGAIPPFSFHPKLKLVADPLLFERFDEIAFNAGMLDKSVILKTADYLRIAQPELVNFRRTA | soluble
11 | MNQKIYWDELKEGEQFSYGHYQVSEHENIDFAKRYDPMEFHVDPEKAKLSPIGALCASGIHTLGIMQRLTFDNIYTNWHIVAGRELRKCQFRLPVFVDDCLTVNMTIAKLSVDTRSDRGNAELTFDVKNAKGKTVLEVEGEIVLQRFPSILEHHHHHH | not soluble
12 | MNEREAKMYELEFPAPDVASDGVDGPTLIIAMQGYADAGLAVEASADHLLSALEHRPVAVFNNDELIDYRSRRPAVTIDHNIVVDANELKLSMDVLRDSNGTPFLLLSGPEPDLRWDAFSQAVADLVRRFGVRRTICIYAAPMTVPHTRPLIVSAHGNSLDLIKHHFSIDSKVTIPGSASLHIERLLNKNNIDVAGYTAHVPHYLSASAYPLATLKLLEAITTSTNLDFPLKTLEADAQKTALQVEEQVAGSQEIESVVKILEQQYDEELEKYRERNPKALEIAEDDLPDADELGEEFERFLANIDEENGSDD | not soluble
13 | MKFYTILSILFISFMLSACAVLQKSSPLQENKDFYILDTHTQKKISFEDMILELLKADVILLGEKHDEVKHKISQVMIFNALEGNLSSQNINFDVALEMLASTEQNHLDKAFKNKKTIKANELTNALNWDKVWKWKDYEQFVNVVFYSKSKILGANLSRSEITSIYNGAQPLKGYVSTTNEVKKQLFDIISLSHKLNPEENKELLDKLVEIQQFKDRRMADVLVHHVNKVLLLAGSYHTSKKIGIPLHIQDFKSSKKIVVVNLSYGEIDLKDSDYVLIYKGEE | not soluble
14 | MGSDKIHHHHHHMPRNMPCPDNTMPSLSFWWRYPYLRVLVVVLLMTSQPCAISAQASTSPSVAQSSLRHLSDQLPIVGVWLTNSPSPLYYSRNLMHKAVKDLYSAGFTALYLNVWSRGSTFHRSNYAPVEGPLQKAGLALDPICTLSREGHARGMKVMPWFEYGLMEPDDAEVVKLHPDWVLARADGNPVVKMHGNHQRVWLNPAHPEVRARFIGVVIEVMKRCKMDGVQLDDHFAWPVKLGYDPYTVALYQQETGSSPPRDYSDRFWMQWRRRKLTGLLRELRQALEKEKLPVNISLAPGPFRFAYNNWLQDWELWTVGKLIDELVVQNYAYSLKGFAKDLDQPALRKAPQLGVPVHIGVLAGFGKRTTPMPILAEKVRMAAERGHGVIYFYWEGLWGQHAGIEGGIQRLRQFKQLHEKKN | not soluble
